Test results taken from CN111662379A (JIANGSU DISEASE CONTROL AND PREVENTION CENTER JIANGSU …, dated 2020).

Assays:
[1] = target: 重组SARS-CoV-2刺突蛋白胞外区 (extra cellular domain of spike protein, S-ECD) (SARS-CoV-2, UniProt P0DTC2 14-1213); assay: SPR, Biacore 8K, S-ECD immobilised on a CM5 chip, antibody injected at 125nM~7.8nM
[2] = target: 重组SARS-CoV-2刺突蛋白胞外区 (extra cellular domain of spike protein, S-ECD) (SARS-CoV-2, UniProt P0DTC2 14-1213); assay: as above; remark: listed apart in the source
[3] = target: SARS-CoV-2 S蛋白 (on live virus, 江苏分离株 BetaCoV/JS03/human/2020) (SARS-CoV-2, UniProt P0DTC2 14-1273); assay: cell-based or functional assay

B1: FC08 (antibody, V domains shown)
VH: VQLLQQSGAEVKKPGSSVKVSCKASGGTFSSYAISWVRQAPGQGLEWMGGIIPILGIANYAQKFQGRVTITADKSTSTAYMELSSLRSEDTAVYYCVRERGYSGYGAAYYFDYWGQGTLVTVSS
VL: QSVLTQPPSVSGAPGQRVTISCTGSSSNIGAGYDVHWYQQLPGTAPKLLIYGNSNRPSGVPDRFSGSKSGTSASLAITGLQAEDEADYYCQSYDSSLSGSVFGGGTKLTVL
- Kd [1]: 0.8 nM

B2: FC11 (antibody, V domains shown)
VH: EVQLLESGGGVVQPGRSLRLSCAASGFTFSYYGMHWVRQAPGTGLEWVAVISYDGSNEYYADSVKGRFTISRDNSKNTLYLQMNSLRAEDTAVYYCAKAMFLGDSSGLTGLDMDVWGQGTTVTVSS
VL: DIELTQSPGTLSLSPGERATLSCRASQSVSSYLAWYQQKPGQAPRLLIYDASNRATGIPARFSGSGSGTDFTLTISSLEPEDFALYYCQQRGNWPPTFGGGTKLEIK
notes: also called FC11抗体
- Kd [2]: 0.5 nM

B3: FC05 (antibody, V domains shown)
VH: VQLLEQSGAEVKKPGASVRVSCKVSGYTLPEVAMHWVRQAPGKGLEWMGGFDPEDGETIYAQKFQGRVTMTEDTSTDTAYMELSSLRSEDTAVYYCATTTPFSSSFWFDPWGQGTLVTVSS
VL: QSVLTQAPSVSGAPGQKVTISCSGSSSNIGNNYVSWYQQLPGTAPKLLIYDNNKRPSGIPDRFSGSKSGTSATLGITGLQTGDEADYYCGTWDSSLSAVVFGGGTKLTVL
- IC50 (体外中和实验, live SARS-CoV-2 on Vero E6 cells, cytopathic effect) [3]: 0.142 mg/L
